In patent US20170183404A1 one finds enhancement of agonist (BU72) affinity for Mor1 in HDL particles data, which are given here for 1 substance.

The target in this experiment is Purified Mor1 (Example 9) (Mus musculus (Mouse)) (UniProt P42866). The experiment in a line: cell-based or functional assay.

Heterotrimeric Gi, sequence (P63096 2-354): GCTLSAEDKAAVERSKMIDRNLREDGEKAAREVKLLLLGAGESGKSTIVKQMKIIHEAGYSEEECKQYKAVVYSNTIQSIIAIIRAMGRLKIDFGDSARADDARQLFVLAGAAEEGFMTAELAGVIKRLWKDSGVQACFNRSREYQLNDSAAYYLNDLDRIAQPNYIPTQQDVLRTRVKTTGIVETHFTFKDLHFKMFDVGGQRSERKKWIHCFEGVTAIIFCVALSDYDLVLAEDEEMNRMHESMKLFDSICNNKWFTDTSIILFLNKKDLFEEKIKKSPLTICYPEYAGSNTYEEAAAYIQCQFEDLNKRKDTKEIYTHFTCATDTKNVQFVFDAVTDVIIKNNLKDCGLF
Heterotrimeric Gi, sequence (P62873 2-340): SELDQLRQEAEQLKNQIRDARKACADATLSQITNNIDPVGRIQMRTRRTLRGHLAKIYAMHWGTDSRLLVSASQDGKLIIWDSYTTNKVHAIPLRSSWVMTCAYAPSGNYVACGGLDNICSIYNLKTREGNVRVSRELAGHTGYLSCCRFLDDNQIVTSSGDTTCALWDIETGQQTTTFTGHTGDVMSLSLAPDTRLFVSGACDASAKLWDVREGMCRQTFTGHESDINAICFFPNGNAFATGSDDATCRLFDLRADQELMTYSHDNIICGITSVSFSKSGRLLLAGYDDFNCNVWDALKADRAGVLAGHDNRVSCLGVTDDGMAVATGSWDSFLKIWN

Regarding “Heterotrimeric Gi (from UniProt P63096 2-354; P62873 2-340)”, the enhancement of agonist (BU72) affinity for Mor1 in HDL particles was 220 fold.
